Target: GCaMP2 [GFP: P42212]
Assay: SEC

Question: For “GCaMP2 (from UniProt P42212 149-238; P42212 1-144)”, which percent present as dimer at the concentrations seen in the brain slice (∼10 μM) is on record?
Answer: 5%

Question: What about the stoichiometry N of the same substance?
Answer: 2
